US8586706B2, “Peptide vaccine using mimic molecules of amyloid β peptide” (Kagoshima University, priority 2007, dated 2013)
No end group written: not given here. *: point of attachment. Biotin = O=C1N[C@H]2[C@H](CS[C@H]2CCCCC(=O)*)N1

Tests used:
Aβ1-42 peptide = biological target: T1, Aβ1-42 peptide (Homo sapiens, UniProt P05067); assay: Experiment of inhibition of amyloid β fibrillogenesis (thioflavine T fluorescence); assay type: biochemical; settings: peptide 1.65, 16.5, 33 nM; Aβ1-42 40 μM, phosphate buffer pH 7.0; 0, 6, 24 hours; FIG. 8
T1 construct: Aβ1-42 was dissolved at a concentration of 40 μM in 20 mM phosphate buffer
Protocol: The synthesized peptide (TAT-B6-L1, B6-L1-TAT, TAT-B7-C15, or TAT-B7-S15) was added at various concentrations (1.65 nM, 16.5 nM, and 33 nM) to the Aβ1-42 peptide diluted to 40 μM using 20 mM phosphate buffer (pH 7.0). The sample (10 μl) was recovered 0, 6, and 24 hours thereafter, 90 μl of 11 μM thioflavine T (Sigma)/phosphate buffer was added, and fluorescence intensity at 482 nm generated by the excitation light at 450 nm was measured using a multilabel plate counter, Wallac 1420 ARVO sx (Perkin-Elmer; Wellesley, Mass.).
Results of measuring activity of inhibiting Aβ1-42 fibrillogenesis by a fusion peptide of TAT and B6-L1, B7-C15, or B7-S15 are shown in FIG. 8. The experiment of inhibition of fibrillogenesis was conducted according to the procedures described in the experiment of inhibition of fibrillogenesis above.

[1] = biological target: T2, Aβ oligomers and Aβ fibers (Homo sapiens, UniProt P05067); assay: Experiment of precipitation of Aβ conformers by biotinylated peptide with streptavidin-magnet beads, Western blot; assay type: binding; settings: biotinylated peptide added 1.5 hours after dissolution of Aβ1-42, FIG. 9
T2 construct: Aβ1-42 was dissolved at a concentration of 40 μM in 20 mM phosphate buffer
Protocol: Aβ1-42 was dissolved at a concentration of 40 μM in 20 mM phosphate buffer (pH 7.0). The TAT-B6-L1 or TAT-B7-C15 peptide adjusted to 40 μM was added 1.5 hours thereafter at a ratio of 1:1 by liquid volume, and the reaction was allowed to proceed at 37° C. for 1 hour (final concentration: Aβ (20 μM)/synthesized peptide (20 μM)). After the reaction, an aliquot thereof was sampled as a sample before immunoprecipitation (“Before precipitation”), and the remaining sample was reacted with M-280 streptavidin-magnet beads (Dynal Biotech, Oslo, Norway) adjusted to 20 μg/μl on ice for 1 hour at a ratio of 1:1 by liquid volume (final concentration: Aβ (10 μM)/synthesized peptide (10 μM)/beads (10 μg/μl)). After the reaction, the beads were precipitated using a magnet to obtain “Supernatant.” To the precipitated beads, PBS was added in a liquid volume equal to that of the recovered supernatant to obtain a “Precipitate.” Each obtained sample was electrophoresed and subjected to Western blot analysis using anti-Aβ antibodies.
Aβ1-42 was dissolved at a concentration of 40 μM in 20 mM phosphate buffer (pH 7.0). The biotinylated TAT-B6-L1 or TAT-B7-C15 peptide was added thereto 1.5 hours thereafter, and the conjugates were precipitated using streptavidin-magnet beads.

B6 scFv = assay: ELISA: binding of B6 scFv to plate-coated synthesized TAT fusion peptide; parameters: species or system human; settings: ELISA plate coated with peptide 200 ng/well; B6 scFv at various concentrations; FIG. 7
Protocol: (5) The fusion peptide of TAT and B6-L1 was recognized by B6 scFv (FIG. 7). An ELISA plate was coated with the synthesized peptide TAT-B6-L1 or B6-L1-TAT under conditions of 200 ng/well. After addition of B6 scFv at various concentrations, binding activity thereof was inspected. A control peptide used was an unrelated peptide (GSGGGSCGYWRSEWGLCG)(SEQ ID NO: 32).

T1 sequence (P05067 672-713 limits assumed): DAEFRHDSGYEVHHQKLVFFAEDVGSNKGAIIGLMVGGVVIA
T2 sequence (P05067 672-713 limits assumed): as above
Sequence of B6 scFv (as listed by the source): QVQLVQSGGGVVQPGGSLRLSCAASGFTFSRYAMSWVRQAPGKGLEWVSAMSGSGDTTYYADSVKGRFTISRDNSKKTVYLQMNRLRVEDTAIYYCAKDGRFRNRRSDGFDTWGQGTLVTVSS
Sequence of B6 scFv (as listed by the source): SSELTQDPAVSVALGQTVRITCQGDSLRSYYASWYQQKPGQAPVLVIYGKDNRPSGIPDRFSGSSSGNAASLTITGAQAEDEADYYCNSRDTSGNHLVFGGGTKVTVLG

Substance | activity of inhibiting Aβ1-42 fibrillogenesis (Aβ1-42 peptide) | precipitation of Aβ oligomers or Aβ fibers by the peptide [1] | binding activity of B6 scFv to coated peptide (B6 scFv)
TAT-B7-C15: B7-C15 sequence (glycine added to carboxyl terminus) having a TAT sequence fused at the amino terminus, SEQ ID NO: 26 (Biotin-YGRKKRRQRRRCYGTKPWMCG; cysteine pairing not given here) | demonstrated to have the activity of inhibiting fibrillogenesis | such Aβ oligomers or Aβ fibers were observed in the precipitate | –
TAT-B6-L1: B6-L1 sequence having a TAT sequence fused at the amino terminus, SEQ ID NO: 24 (Biotin-YGRKKRRQRRRGMLDIFAPIRHV) | demonstrated to have the activity of inhibiting fibrillogenesis | such Aβ oligomers or Aβ fibers were observed in the precipitate | Binding reaction dependent on the amount of B6 scFv was observed
B6-L1-TAT: B6-L1 sequence having a TAT sequence fused at the carboxyl terminus, SEQ ID NO: 25 (Biotin-GMLDIFAPIRHVYGRKKRRQRRR) | demonstrated to have the activity of inhibiting fibrillogenesis | – | Binding reaction dependent on the amount of B6 scFv was observed
GSGGGSCGYWRSEWGLCG (Designed peptide based on the sequence unrelated to B6 scFv) [control peptide, reference compound] | no inhibiting activity | No precipitation reaction was observed | –
TAT-B7-S15: B7-S15 sequence having a TAT sequence fused at the amino terminus, SEQ ID NO: 27 (Biotin-YGRKKRRQRRRSYGTKPWMSG) | demonstrated to have the activity of inhibiting fibrillogenesis | – | –
